From patent US20250034594A1, “RNA-GUIDED GENOME RECOMBINEERING AT KILOBASE SCALE” (THE BOARD OF TRUSTEES OF THE LELAND STANFORD JUNIOR …, priority 2021, published 2025)

B1: SSAP_200: SEQ ID NO: 369; Streptomyces (multispecies) (protein, listed as Streptomyces sp.)
chain: SQISNALATRDQGPAAQIEQYRDEYAALVPSHVNADQWVRLAVGAVRGDEKLMEAAQNDIGLFLREMKTAARLGLEPGTEQFYLTPRKSKPHGGRKVIKGIVGYQGIVELIYRAGAASTVIVEAVRENDTFRYVPGRDDRPVHEIDWFANDRGPLVGVYAYAVMKDGAVSKVVVLNRSRVMEFKAKSDSKHSEYSPWNTNEEAMWLKSAVRQLAKWVPTSAEYRRDQLLAHTETADSVVASVSTAPLPPQPSALDDADPDDDGPIDAELVD
B2: SSAP_212: SEQ ID NO: 381; Streptomyces sp. NRRL S-1824 (protein, listed as Streptomyces sp.)
chain: SEISNAIATRDQGPAAQIEAYRDEYAALVPSHINVDQWVRLAAGAIRGNEDLMEAARNDIGVFLRELKTAARLGLEPGTEQFYLTARKSKAHGYALIIKGIVGYQGIVELIYRAGAVSSVIVEAVRANDTFSYVPGRDDRPIHEIDWFGGDRGPLVGVYAYAVMKDGAVSKVVVMNHKRVMEIKARSDSKNSQYSPWNTDEESMWLKSAIRQLAKWVPTSAEYKSEQLRAHAEAIGELASVASAPLPPQPSVLDDVDPDDEGPIEGELVD
B3: SSAP_195: SEQ ID NO: 364; Isoptericola dokdonensis (protein, listed as Isoptericola dokdonensis)
chain: TQDLATAIADQQPAQRRTAFDLVESMRGELHKALPEHASIDNFLRLALTELKMNPQLGNCSGESLLGALMTAARVGLEVGGPLGQFYLTPRRLKRDGWAVVPIVGYRGLITLARRAGVGQVNAVVVHEGDTFREGASSERGFFFDWEPAVERGKPVGALAAARLAGGDVQHRYLSLAEVHERRDRGGFKDGSNSPWATDYDAMVRKTALRALVPLLPQSTALSFAVQADEQVQRYDAGDIDIPALDETDTEDTK
B4: SSAP_136: SEQ ID NO: 305; Corynebacterium striatum (protein, listed as Corynebacterium striatum)
chain: GTNLEQRMAANNAPAKQNRPVTLADQIRSMESQFQLAMPKGMEAQQLVRDALTCLRQTPKLAECTPQSVLGGLMTCSQLGLRPGVLGHAYLLPFWDRKQGGMVAQLVVGYRGLVELAHRSGQIQSLIARTVYENDHFDVDYGLDDKLVHKPCMNGPKGNPIAYYAVAKFTTGGHSFIVMSKDEMLAYRDEFAKAKNKQGEVFGPWADNFDAMAHKTCVRQLAKWMPSSTDLDRGIAADETVRVDLSESALDYPQHVDGEVVDSKPAEDEAA
B5: SSAP_179: SEQ ID NO: 348; Acetoanaerobium noterae (protein, listed as Acetoanaerobium noterae)
chain: SNLKNELAKKANNSVTDGNKEPQTIKDWIKVMEPAIKKALPSVITPERFTRMALTAISVNPKLAECTPKSFMGSLMNAAQLGLEPNTPLGQAYLIPYKNKGNMEVQFQIGYKGLIELAYRSGEFANIYAKEVFENDEFEYEFGLEPVLKHKPASGNRGEVIAYYAVFKLTNGGFGFEVMSKEDITNHAKTYSQAYSSSYSPWSKNFDEMAKKTVLKKVLKYAPIKVEFVKQIVQDSTIKTEINSDMTEVESQNVFEAEETDYEVIDQEETK
B6: SSAP_88: SEQ ID NO: 257; Raoultella planticola (protein, listed as Raoultella planticola)
chain: TKQPPIAKADLQKTQGTRVSSPKGNNDVISFINQPSMKEQLAAALPRHMTAERMIRIATTEIRKVPALASCDTMSFVSAIVQCSQLGLEPGGALGHAYLLPFGNKNEKSGKKNVQLIIGYRGMIDLARRSGQIASLSARVVREGDEFSYEFGLEEKLTHRPGENEDAPVTHVYAVARLKDGGTQFEVLTSKQIELVRSQSKAANSGPWVTHWEEMAKKTAIRRLFKYLPVSIEIQRAVSIDEKEALTIDPADTSVLTGEYSVINSESEE
B7: SSAP_127: SEQ ID NO: 296; Solibacillus sp. R5-41 (protein, listed as Solibacillus sp.)
chain: ATSNELKKQAQGQVTAKPTTPEGSLNALLKKMGPEIQRALPKHMDADRIARIALTAVRTTPKLLECDQLSFVAALMQSAQLGVEPNTGLGQAYLIPYGGKVQFQLGYKGLIDLAVRSGQYKAIYAHEVYADDEFSFAYGLHKDLVHVPSANPSGDPIGYYAVYHLKNGGYDFVYWTRERIDIHSKAFSQAVQKGWTSPWKTNYDAMAKKTVLKEVLKYAPKSIEMQKVVEADETIKNEVAPDMSNVIDVTDYSILEDPQDVTDAQ
B8: SSAP_322: SEQ ID NO: 491; Candidatus Dependentiae bacterium (protein)
chain: CHVLNFQTDYKGEIKLAHKYSVRKIIDIYAKVVRDGDVLEIRVENGSQIVNFNPKVFNDGKIIGAFAVVKFVDGSLLYETMSKSEIDHTRVTFSKMPNGMAWKDSEGEMCRKTVLRRICKLIDLHFDSVEQEQAWNDGSDADLTKNEPVKPEIQNPFPTKAVEAVIVTEEEKLRKQLKDKDPTLQDWQIDALVREHKEANQ
modifications: Candidatus Dependentiae bacterium
B9: SSAP_116: SEQ ID NO: 285; Lachnoclostridium sp. An14 (protein, listed as Lachnoclostridium sp.)
chain: TDVKQELERKVGKQDSTAVRLTKNMSIPDMIKALEPEIRRALPAVLTPERFLRMALSAVNNTPKLAECTPMSFIAAMMNAAQLGLEPNTPLGQAYLIPYKNKNQLECQFQIGYKGIIDLAYRTGQMQMIQAHAVHEFDDFEYEYGLNPKLIHRPGDGNRGEITYFYGLFKLVNGGFGFEVMNREAMEAFAQQYSQSYGSQYSPWVKNFEDMAKKTVIKKALKYGPVKAEFQKAISMDETIKTEIAVDMTEVQNEESE
B10: SSAP_139: SEQ ID NO: 308; Butyrivibrio sp. FCS006 (protein, listed as Butyrivibrio sp.)
chain: PYLFGGQMKEQEIKNQLAAKAVETTNPKLSKNMNIADLIKAIEPEIKKALPTVITPERFTRIALSALNTTPKLAECSQMSFLAALMNAAQLGLEVNSPLGQAYLIPYNNKGKLECQFQIGYKGMLGLAYRNPEIQTIQAQVVYENDDFKYELGLDSKLYHKPSLSDRGKVRCYYALYKLRNGGYGFEVMSRRDVEEYAKRYSKVTDSLYSPWANNFDSMAKKTVIKQLLKYAPLRTDLEKAMSMDESIKTRVSVDMSEVENEETFDAEVEV
B11: SSAP_148: SEQ ID NO: 317; Corynebacterium liangguodongii (protein, listed as Corynebacterium liangguodongii)
chain: KDLETRMAANQQPAQQRPTTLADQIRGMEQQFALAMPKGAEASQLVRDALTALRQAPKLAQCTPQSVLGSLMTCAQLGLRPGVLGHAYLIPFYDRRAGGLVAQLVIGYQGLVELAHRSGQIKSLIARTVYENDVFDVDYGLEDKLVHKPYMGGDKGQPIAYYAVAKFTTGGHAFYVMSHPEMLDYRARFAKSAERGPWVDNFEAMALKTCVRQLSKWMPKSTELATAIAADESVRVDLTPDAINYPEHVDGEVVDAQGTTEDTAGEGEQSA
B12: SSAP_53: SEQ ID NO: 222 (protein)
chain: STALTTLTSQLSQRFKLDGGEELLTTLKQTAFKGQVTDAQMTALLIVANQFGLNPWTKEIYAFPDKNGGIVPVVGVDGWARIINEHPQFDGMDFEMDGEQSCTCVIYRKDRTRPIRITEYMAECKKTGGGPWQSHPRRMLRHKAMIQCARMAFGFGGISDEDDAERIREKDITPQAEVVPKALEPYPADKFEENFEQWKSLIESGRRSADDVIAKIKSRNTMTDEQETRLRACGGEEGKTYENA

Tests used:
Type in all cases: cell-based
gene editing with dCas9 = experiment: Screen of 322 new SSAP proteins, gene editing activity with dCas9 (Table 5); design: dCas9 with SSAP activity: scale not given here
Summary of the method: (§1)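 Read-out is gene editing activity. Candidates come from sequence data mining, are made synthetically, and are tested alongside either nuclease-active Cas9 or catalytically dead dCas9.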

[1] = test system: gene editing with Cas9 and dCas9; experiment: Screen of 322 new SSAP proteins, activity across all experiments (Cas9 and dCas9, Table 5); design: scale not given here
Summary of the method: as §1

gene editing with Cas9 = experiment: Screen of 322 new SSAP proteins, gene editing activity with Cas9 (Table 5); design: Cas9 with SSAP activity: scale not given here
Summary of the method: as §1

Molecule	dCas9 with SSAP activity (gene editing with dCas9)	dCas9 with SSAP activity (normalized) (gene editing with dCas9)	Activity across all experiments [1]	Cas9 with SSAP activity (gene editing with Cas9)	Cas9 with SSAP activity (normalized) (gene editing with Cas9)
B1	−6.514	−1.107	−4.491	−2.468	−0.973
B2	−6.577	−1.182	−3.064	0.448	0.210
B3	−6.406	−0.956	−4.084	−1.761	−1.896
B4	−6.395	−0.952	−3.495	−0.594	−0.262
B5	−6.840	−1.230	−5.563	−4.285	−0.748
B6	−6.933	−1.193	−4.539	−2.144	−1.524
B7	−6.524	−1.210	−3.048	0.427	0.447
B8	0.082	0.048	0.184	0.287	0.247
B9	−6.481		−3.394	−0.307	−0.056
B10	−6.481		−6.481	−6.481	
B11	−6.656	−1.610	−5.193	−3.731	−0.574
B12	0.088	0.036	−0.778	−1.644	−1.327
